Experimental data taken from the supplement of paper PMC12764529.
± gives the half width of the 95% confidence interval.

Assays:
[1] = folding stability dG unfold from trypsin proteolysis; higher = more stable
How it was run: (§1)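 Mini-proteins designed to be under 80 residues and free of cysteine were carried in a PA-tagged cDNA display construct and digested with trypsin and with chymotrypsin. Each protease was applied at 11 threefold-diluted concentrations, alongside a no-protease condition, before sequencing. K50 came from Bayesian fitting of the sequencing counts, and unfolding free energy was obtained by comparing it with a sequence-predicted unfolded-state K50 and a shared folded-state K50, for each protease separately or for both together. Designs were retained only if their AlphaFold2 dimer inter-PAE exceeded 15.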

[2] = folding stability dG unfold from chymotrypsin proteolysis; higher = more stable
How it was run: as §1

[3] = folding stability dG unfold (combined trypsin and chymotrypsin); higher = more stable
How it was run: as §1

| Sequence | folding stability dG unfold [1] [kcal/mol] | folding stability dG unfold [2] [kcal/mol] | folding stability dG unfold [3] [kcal/mol] |
| --- | --- | --- | --- |
| SAMVTYDPEKGVFEAEIEVGGETLRVTVVRDPETGEVVAVVERPGSGEPVVLPLPFKSLSDVIRYAEEHSAG [r14_803_TrMRF] | 2.3 ± 0.07 | 2.49 ± 0.044 | 2.36 ± 0.11 |
| SAMVVIKPEGDKIVVEITLPDGSTKVIELPEVEKIEIKGDTLIITDPKTGKKIIPENTTVSNPKIEPAKSAG [r14_83_JUSTAS] | -0.167 ± 0.065 | -0.0623 ± 0.064 | 0.0698 ± 0.14 |
| SAMVVIPFPKDTPPEVALEAVRKAVREAAENGIVPEKIVVVAHPDLVFLVDSLVEAGIPLENVEFVPSESAG [r14_589_TrMRF] | 2.87 ± 0.069 | 2.86 ± 0.057 | 2.88 ± 0.052 |
| SAMVVPVKVELEIRVPGTPEEALEIAEELAKAFESLGNVEVDLELIEKSEDGSYIIKLTVTNYLPPELFSAG [r14_413_TrMRF] | 0.905 ± 0.1 | 1.99 ± 0.11 | 1.53 ± 0.21 |
| SAMYEPAEFSFTLPNGEKIHITAPKNPNTDEPIVSITIYRKLPDGNTVSFTITVKSSDIDEIIEKLGIKSAG [r14_416_TrMRF] | 3.39 ± 0.095 | 3.74 ± 0.11 | 3.67 ± 0.32 |
| SANDDDWVTVIFEIPIVRKDPDGKPEKHPFRLMVQVHPDGRVEINIMYPNGRPIASQTVPPGQTLEDFISAG [r14_559_TrROS] | 2.63 ± 0.13 | 3.84 ± 0.077 | 3.38 ± 0.23 |
| SANGEMTMMFEFEIFFPGLGYRGKIYVMMRIEPTPNQIRIDLMIMIEIEPIPPPPPKVPPEQNPEDADDSAG [r14_435_TrROS] | 3.82 ± 0.21 | 5.18 ± 0.2 | 5.23 ± 0.48 |
| SANGKEYTFTIEIRVRDPENGQPWTIRITVPIWYDPDDGKLDIDIDVTPTPGMPKEWAERIAKEIIEAISAG [r14_152_TrROS] | 3.04 ± 0.11 | 3.95 ± 0.048 | 3.6 ± 0.076 |
| SAPAVLLEEPDTLVEVEKLPDGSLLIRRVTKFPDGSVTVEISVIYPGGSLSVLESVTLNVPPEEPLPLLSAG [r14_42_JUSTAS] | 2.42 ± 0.054 | 1.46 ± 0.051 | 1.91 ± 0.073 |
| SAPDPEQRKKNREQQEKNERMIPIQIHVYDKDGKWKPIGPVWFKDPDVPIDDLVPTFHDEGFDYVSISISAG [r14_318_TrROS] | 0.153 ± 0.15 | 0.209 ± 0.23 | 0.299 ± 0.21 |
| SAPDWVKIKFPFRFYNPDPDGKPMAKMKLEIEVYPSPGAYMAKIEDPNFGMKITFPFDSPEEVKDFLQNSAG [r14_508_TrROS] | 1.25 ± 0.083 | 1.14 ± 0.25 | 1.23 ± 0.32 |
| SAPEVEVFPGKDNSALVRVVFEFDGYRIEVVRRVPVEALKAGIPLEELPDVEILEVRVVKLPKPRPDELSAG [r14_856_TrMRF] | 2.17 ± 0.056 | 2.85 ± 0.029 | 2.58 ± 0.061 |
| SAPEVFRFTIPRYRDDYEFDGDGYPVLKERKPVAPLEVEAVVFEDGTVRVRVGDEVREFPLGVSPEELFSAG [r14_909_TrMRF] | 0.601 ± 0.22 | 0.355 ± 0.18 | 0.566 ± 0.1 |
| SAPFTATETVVTEEEDPATGLTRIPVEMTVDDHPVTGEGVRDPADPSRVSFSITFPDSDLTLTGEEPLPSAG [r14_178_JUSTAS] | 0.491 ± 0.036 | -0.0428 ± 0.11 | 0.312 ± 0.048 |
| SAPGLRTYTIYDPSGVRRTFPPSWDVTILEYDPKTGTVTLKITKHNTDPGAPVSTETEKRKATFLRDVESAG [r14_927_JUSTAS] | 0.575 ± 0.09 | 0.824 ± 0.12 | 0.725 ± 0.061 |
| SAPIDIDLERDPEPGRLKATVEFPWPNGWMHRMTFDLQWPRIKVEHYPFKDGEPEPQEIEIPIPANAKVSAG [r14_64_TrROS] | 0.0882 ± 0.17 | 0.426 ± 0.24 | 0.338 ± 0.19 |
| SAPIKIEIDVHQPPPGDYMIMVRIRPPGDGKEFPRMFPFPPDDAEKILENLLSQFPGYEIDDIEPMRYPSAG [r14_969_TrROS] | 1.26 ± 0.049 | 1.08 ± 0.15 | 1.29 ± 0.16 |
| SAPKRYYIKIEIYDNGKKQEITIPIGATIKNPGGKEYTYPVDSPEDLEEALNDLFPPGFPIKIDDVHPPSAG [r14_41_TrROS] | 0.517 ± 0.042 | 1.21 ± 0.17 | 0.973 ± 0.11 |
